Results on 2 substances are retold here after patent US20220251619A1.

The target of the test is porcine pancreatic elastase (Merck, Germany, Cat. No. 324682) (porcine) (UniProt P00772). Briefly: cell-based or functional assay.
Chain of UniProt P00772 (P00772 27-266 limits assumed): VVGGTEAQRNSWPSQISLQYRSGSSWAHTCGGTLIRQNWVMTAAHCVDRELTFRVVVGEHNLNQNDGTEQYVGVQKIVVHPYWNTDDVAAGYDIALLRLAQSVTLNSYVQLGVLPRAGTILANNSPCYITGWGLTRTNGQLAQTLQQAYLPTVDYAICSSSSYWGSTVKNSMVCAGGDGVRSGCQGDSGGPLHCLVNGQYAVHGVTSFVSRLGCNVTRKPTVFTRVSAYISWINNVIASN

For “recombinant alpha-1 antitrypsin produced in CHO-DG44 cells, untreated (from UniProt P01009 25-418)”, the % active AAT relative to plasma-derived AAT (elastase inhibition, SAPNA hydrolysis at 410 nm), Assay 1 is 90.1%; the % active AAT relative to plasma-derived AAT (elastase inhibition, SAPNA hydrolysis at 410 nm), Assay 2 is 88.6%; the Average % Activity (elastase inhibition, SAPNA hydrolysis at 410 nm) was determined as 89.3%.
Turning to “remodelled rAAT (rAAT incubated with beta1,4-galactosyltransferase, alpha2,3 sialyltransferase from Pasteurella multocida and alpha2,6 sialyltransferase from Photobacterium damselae, then purified) (from UniProt P01009 25-418)”, the % active AAT relative to plasma-derived AAT (elastase inhibition, SAPNA hydrolysis at 410 nm), Assay 1 turned out to be 97.1%; the % active AAT relative to plasma-derived AAT (elastase inhibition, SAPNA hydrolysis at 410 nm), Assay 2 was determined as 93%; the Average % Activity (elastase inhibition, SAPNA hydrolysis at 410 nm) was determined as 95.4%.
